Results: patent US12552834 (MIT, dated 2026)
Numbering of substitutions follows the chain as printed. Like-named read-outs stand apart in the source and are kept apart here.

Key:
[1] = target: T1, ENAH EVH1 domain with Arg47 mutated to Ala (human, UniProt Q03173 1-111 (mouse entry)); test: BLI, steady state; SUMO-peptide immobilised, EVH1 monomer in solution
T1 construct: also called ENAH R47A; ENAH EVH1 R47A
Description: (§1) All BLI experiments were performed with 2 replicates on an Octet Red96 instrument (ForteBio). […] The loaded tips were immersed in a solution of ENAH EVH1 domain at a relevant dilution series in BLI buffer at an orbital shake speed of 1000 rpm and run until the binding signal plateaued. ENAH-bound tips were subsequently placed into BLI buffer only for dissociation and run until the binding signal plateaued. K_D values were obtained through steady state analysis. […] The association phases were then fit to a one-phase binding model in Prism and the equilibrium steady-state binding signal values from that fit were plotted against ENAH concentration and fit to a single-site specific binding model in Prism to obtain dissociation constants. Errors reported are the standard deviation of two replicates.

[2] = target: T2, ENAH EVH1 domain (monomeric, wild type) (human, UniProt Q03173 1-111 (mouse entry)); test: as above
T2 construct: ENAH residue numbers in the text count from the Met at position 25 of this entry; also called ENAH EVH1 WT; Mena EVH1 WT
T2 sequence (Q03173 other isoform, or with tags, fused parts or gaps limits assumed): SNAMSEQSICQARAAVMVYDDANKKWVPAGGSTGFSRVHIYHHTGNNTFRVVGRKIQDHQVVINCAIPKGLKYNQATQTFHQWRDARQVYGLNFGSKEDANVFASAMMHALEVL
Description: as §1

[3] = target: T2, ENAH EVH1 domain (monomeric, wild type); test: as above; remark: listed apart in the source
Description: as §1

[4] = target: T1, ENAH EVH1 domain with Arg47 mutated to …; test: as above; remark: listed apart in the source
Description: as §1

[5] = target: T2, ENAH EVH1 domain (monomeric, wild type); test: as above; remark: listed apart in the source
Description: as §1

[6] = target: T2, ENAH EVH1 domain (monomeric, wild type); test: BLI
Description: as §1

[7] = target: T2, ENAH EVH1 domain (monomeric, wild type); test: BLI dissociation phase, immobilised SUMO-peptide, ENAH EVH1 domain in solution
[8] = target: T2, ENAH EVH1 domain (monomeric, wild type); test: BLI, steady state; SUMO-peptide immobilised, EVH1 monomer in solution; remark: listed apart in the source
Description: as §1

[9] = target: T2, ENAH EVH1 domain (monomeric, wild type); test: ITC
Description: (§2) ITC experiments were performed with two replicates using a VP-ITC microcalorimeter (MicroCal LLC). To prepare samples for ITC, 2.5 mL of 100 µM ENAH EVH1 domain and 1 mL of 800 µM-1.2 mM of SUMO-peptide fusions were dialyzed against 2 µL of ITC Buffer (20 mM Hepes pH 7.6, 150 mM NaCl, 1 mM TCEP) at 4° C. overnight. The concentrations of proteins were remeasured after dialysis on the day of experiment. SUMO-peptide was titrated into ENAH EVH1 domain at 25° C. Data analysis and curve fitting were performed with the Origin 7.0 software (OriginLab).

[10] = target: T2, ENAH EVH1 domain (monomeric, wild type); test: ITC, SUMO-peptide titrated into ENAH EVH1 domain at 25 °C
Description: as §2

[11] = target: T2, ENAH EVH1 domain (monomeric, wild type); test: BLI, monomeric EVH1
[12] = target: T2, ENAH EVH1 domain (monomeric, wild type); test: BLI, steady state; SUMO-peptide immobilised, EVH1 monomer in solution; Table 2 (MassTitr hit validation), not the Table 3 truncation series
Description: as §1

T1 sequence (Q03173 other isoform, or with tags, fused parts or gaps limits assumed, stated change not applied): as the sequence (Q03173 other isoform, or with tags, fused parts or gaps limits assumed) above, with R50A counted along it

B1: LPP Duplicated peptide (peptide)
peptide: MAGGLNDIFEAQKIEWHEDTGGSSHHHHHHGSGSGSDSEVNQEAKPEVKPEVKPETHINLKVSDGSSEIFFKIKKTTPLRRLMEAFAKRQGKEMDSLTFLYDGIEIQADQTPEDLDMEDNDIIEAHREQIGGSGSGKQPGGEGDFLPPPPPPLDDSSALPSISGNDDSSALPSISGNFPPPPPL
modifications: biotinylated (BAP tag)
notes: Engineered variant, tested as a SUMO fusion
- Kd [1]: 54.2 µM
- Kd [2]: 6.66 µM

B2: PCARE 36-residue peptide (PCARE813-848) (peptide)
peptide: MAGGLNDIFEAQKIEWHEDTGGSSHHHHHHGSGSGSDSEVNQEAKPEVKPEVKPETHINLKVSDGSSEIFFKIKKTTPLRRLMEAFAKRQGKEMDSLTFLYDGIEIQADQTPEDLDMEDNDIIEAHREQIGGSGSGAAKSEELSCEMEGNLEHLPPPPMEVLMDKSFASLES
modifications: biotinylated (BAP tag)
notes: Tested in BLI as a biotinylated BAP-6xHis-SUMO-peptide fusion; also called PCARE 36-mer
- Kd [3]: 0.192 µM
- Kd [4]: 0.331 µM
- Kd [5]: 0.192 µM

B3: ABI1-LPP fusion peptide (designed binder)
peptide: MAGGLNDIFEAQKIEWHEDTGGSSHHHHHHGSGSGSDSEVNQEAKPEVKPEVKPETHINLKVSDGSSEIFFKIKKTTPLRRLMEAFAKRQGKEMDSLTFLYDGIEIQADQTPEDLDMEDNDIIEAHREQIGGSGSGFDDFPPPPPPPPVDYEDLPSISGNFPPPPPL
modifications: biotinylated (BAP tag)
notes: Engineered peptide, tested as a SUMO fusion in BLI
- Kd [6]: 760 nM
- koff [7]: 0.33 s⁻¹

B4: FP8 peptide (FPPPPPPPP) (peptide)
peptide: MAGGLNDIFEAQKIEWHEDTGGSSHHHHHHGSGSGSDSEVNQEAKPEVKPEVKPETHINLKVSDGSSEIFFKIKKTTPLRRLMEAFAKRQGKEMDSLTFLYDGIEIQADQTPEDLDMEDNDIIEAHREQIGGSGSGFPPPPPPPP
modifications: biotinylated (BAP tag)
notes: ABI1 truncation, tested as a SUMO fusion
- fold decrease in affinity on truncation of the flank [6]: 3 fold
- Kd [8]: 28.5 µM

B5: FP4S4 peptide (FPPPPSSSS) (peptide)
peptide: B4 peptide with P142S, P143S, P144S, P145S
modifications: biotinylated (BAP tag)
notes: Tested as a SUMO fusion
- fold reduction in affinity against … [6]: ~4 fold
- Kd [8]: 114 µM

B6: Minimum General peptide (peptide)
peptide: MAGGLNDIFEAQKIEWHEDTGGSSHHHHHHGSGSGSDSEVNQEAKPEVKPEVKPETHINLKVSDGSSEIFFKIKKTTPLRRLMEAFAKRQGKEMDSLTFLYDGIEIQADQTPEDLDMEDNDIIEAHREQIGGSGSGDFLPPPPGGGGGGSGSGGGSGSFPPPPGG
modifications: biotinylated (BAP tag)
notes: Engineered peptide, tested as a SUMO fusion
- Kd [1]: 86.9 µM
- Kd [2]: 92.6 µM

B7: ABI1 a peptide (peptide)
peptide: MAGGLNDIFEAQKIEWHEDTGGSSHHHHHHGSGSGSDSEVNQEAKPEVKPEVKPETHINLKVSDGSSEIFFKIKKTTPLRRLMEAFAKRQGKEMDSLTFLYDGIEIQADQTPEDLDMEDNDIIEAHREQIGGSGSGFDDFPPPPPPPPVDYED
modifications: biotinylated (BAP tag)
notes: as for B4
- Kd [8]: 5.21 µM

B8: SUMO-ActA (ActA 36-mer peptide fused to SUMO) (peptide)
peptide: MAGGLNDIFEAQKIEWHEDTGGSSHHHHHHGSGSGSDSEVNQEAKPEVKPEVKPETHINLKVSDGSSEIFFKIKKTTPLRRLMEAFAKRQGKEMDSLTFLYDGIEIQADQTPEDLDMEDNDIIEAHREQIGGGFNAPATSEPSSFEFPPPPTEDELEIIRETASSLDS
modifications: biotinylated (BAP tag)
notes: Control peptide used in BLI and ITC; also called ActA peptide
- Kd [3]: 5.21 µM
- Kd [4]: 8.02 µM
- Kd [5]: 5.21 µM
- -TΔS [9]: -5.21 kcal/mol
- ΔG [9]: -6.99 kcal/mol
- ΔH [9]: -1.78 kcal/mol
- Kd [10]: 7.41 µM

B9: FDDFP8 peptide (peptide)
peptide: MAGGLNDIFEAQKIEWHEDTGGSSHHHHHHGSGSGSDSEVNQEAKPEVKPEVKPETHINLKVSDGSSEIFFKIKKTTPLRRLMEAFAKRQGKEMDSLTFLYDGIEIQADQTPEDLDMEDNDIIEAHREQIGGSGSGFDDFPPPPPPPP
modifications: biotinylated (BAP tag)
notes: as for B4
- fold decrease in affinity on truncation of the flank [6]: 2.5 fold
- Kd [8]: 10.1 µM

B10: NHSL1 Duplicated peptide (peptide)
peptide: MAGGLNDIFEAQKIEWHEDTGGSSHHHHHHGSGSGSDSEVNQEAKPEVKPEVKPETHINLKVSDGSSEIFFKIKKTTPLRRLMEAFAKRQGKEMDSLTFLYDGIEIQADQTPEDLDMEDNDIIEAHREQIGGSGSGADRSPFLPPPPPVTDCSQGSPLPHSPVPVTDCSQGSPLPHSPVFPPPPPEAL
modifications: biotinylated (BAP tag)
notes: as for B1
- Kd [1]: 70 µM
- Kd [2]: 18.4 µM

B11: LPP 36mer peptide (peptide)
peptide: MAGGLNDIFEAQKIEWHEDTGGSSHHHHHHGSGSGSDSEVNQEAKPEVKPEVKPETHINLKVSDGSSEIFFKIKKTTPLRRLMEAFAKRQGKEMDSLTFLYDGIEIQADQTPEDLDMEDNDIIEAHREQIGGSGSGKQPGGEGDFLPPPPPPLDDSSALPSISGNFPPPPPL
modifications: biotinylated (BAP tag)
notes: Tested as a BAP-6xHis-SUMO-peptide fusion in BLI and ITC
- Kd [3]: 4.03 µM
- Kd [1]: 61.9 µM
- Kd [2]: 4.03 µM
- Kd [4]: 61.9 µM
- Kd [5]: 4.03 µM
- -TΔS [9]: -0.504 kcal/mol
- ΔG [9]: -6.94 kcal/mol
- ΔH [9]: -6.44 kcal/mol
- Kd [10]: 8.13 µM
- koff [7]: 1.8 s⁻¹

B12: LPP Minimal peptide (peptide)
peptide: MAGGLNDIFEAQKIEWHEDTGGSSHHHHHHGSGSGSDSEVNQEAKPEVKPEVKPETHINLKVSDGSSEIFFKIKKTTPLRRLMEAFAKRQGKEMDSLTFLYDGIEIQADQTPEDLDMEDNDIIEAHREQIGGSGSGGDFLPPPPPPLGGGSGSGGGSGSFPPPPPL
modifications: biotinylated (BAP tag)
notes: as for B1
- fold reduction in affinity relative to the LPP 36-mer [6]: ~4 fold
- Kd [1]: 124 µM
- Kd [2]: 15.8 µM

B13: NHSL1 FP4 1 peptide (peptide)
peptide: MAGGLNDIFEAQKIEWHEDTGGSSHHHHHHGSGSGSDSEVNQEAKPEVKPEVKPETHINLKVSDGSSEIFFKIKKTTPLRRLMEAFAKRQGKEMDSLTFLYDGIEIQADQTPEDLDMEDNDIIEAHREQIGGSGSGADRSPFLPPPPPVTDCSQGSPLPHSPV
modifications: biotinylated (BAP tag)
notes: Truncation of the NHSL1 36mer that keeps the first FP4 motif, tested as a SUMO fusion
- Kd [1]: 99.1 µM
- Kd [2]: 48.7 µM

B14: TENM1 36-mer peptide (peptide)
peptide: MAGGLNDIFEAQKIEWHEDTGGSSHHHHHHGSGSGSDSEVNQEAKPEVKPEVKPETHINLKVSDGSSEIFFKIKKTTPLRRLMEAFAKRQGKEMDSLTFLYDGIEIQADQTPEDLDMEDNDIIEAHREQIGGSGSGGSTQDVQSSPHNQFTFRPLPPPPPPPHACTCARKPP
modifications: biotinylated (BAP tag)
notes: Tested as a biotinylated BAP-6xHis-SUMO-peptide fusion; The text calls it TEN1; it contains both an FP4 and a CXC motif; also called TEN1
- Kd [3]: 62.9 µM
- Kd [11]: > 60 µM

B15: LPP FP4 2 peptide (peptide)
peptide: MAGGLNDIFEAQKIEWHEDTGGSSHHHHHHGSGSGSDSEVNQEAKPEVKPEVKPETHINLKVSDGSSEIFFKIKKTTPLRRLMEAFAKRQGKEMDSLTFLYDGIEIQADQTPEDLDMEDNDIIEAHREQIGGSGSGPPLDDSSALPSISGNFPPPPPL
modifications: biotinylated (BAP tag)
notes: Truncation of the LPP 36mer that keeps the second FP4 motif, tested as a SUMO fusion
- Kd [1]: 75.2 µM
- Kd [2]: 28.3 µM

B16: NHSL1 36mer peptide (peptide)
peptide: MAGGLNDIFEAQKIEWHEDTGGSSHHHHHHGSGSGSDSEVNQEAKPEVKPEVKPETHINLKVSDGSSEIFFKIKKTTPLRRLMEAFAKRQGKEMDSLTFLYDGIEIQADQTPEDLDMEDNDIIEAHREQIGGSGSGADRSPFLPPPPPVTDCSQGSPLPHSPVFPPPPPEAL
modifications: biotinylated (BAP tag)
notes: as for B11
- Kd [3]: 8.56 µM
- Kd [1]: 55.4 µM
- Kd [2]: 8.56 µM
- Kd [4]: 55.4 µM
- Kd [5]: 8.56 µM
- -TΔS [9]: -0.28 kcal/mol
- ΔG [9]: -6.83 kcal/mol
- ΔH [9]: -6.55 kcal/mol
- Kd [10]: 9.8 µM

B17: ABI1 36mer peptide (peptide)
peptide: MAGGLNDIFEAQKIEWHEDTGGSSHHHHHHGSGSGSDSEVNQEAKPEVKPEVKPETHINLKVSDGSSEIFFKIKKTTPLRRLMEAFAKRQGKEMDSLTFLYDGIEIQADQTPEDLDMEDNDIIEAHREQIGGSGSGFDDFPPPPPPPPVDYEDEEAAVVQYNDPYADGDPAW
modifications: biotinylated (BAP tag)
- Kd [12]: 2440 nM
- Kd [8]: 4.01 µM

B18: NHSL1 FP4 2 peptide (peptide)
peptide: MAGGLNDIFEAQKIEWHEDTGGSSHHHHHHGSGSGSDSEVNQEAKPEVKPEVKPETHINLKVSDGSSEIFFKIKKTTPLRRLMEAFAKRQGKEMDSLTFLYDGIEIQADQTPEDLDMEDNDIIEAHREQIGGSGSGPVTDCSQGSPLPHSPVFPPPPPEAL
modifications: biotinylated (BAP tag)
notes: Truncation of the NHSL1 36mer that keeps the second FP4 motif, tested as a SUMO fusion
- Kd [1]: 51 µM
- Kd [2]: 24.4 µM

B19: Zyxin 36-mer peptide (peptide)
peptide: MAGGLNDIFEAQKIEWHEDTGGSSHHHHHHGSGSGSDSEVNQEAKPEVKPEVKPETHINLKVSDGSSEIFFKIKKTTPLRRLMEAFAKRQGKEMDSLTFLYDGIEIQADQTPEDLDMEDNDIIEAHREQIGGSGSGALGGAFPPPPPPIEESFPPAPLEEEIFPSPPPPPEE
modifications: biotinylated (BAP tag)
notes: Tested as a biotinylated BAP-6xHis-SUMO-peptide fusion
- Kd [3]: 4.79 µM
- Kd [4]: 54.5 µM
- Kd [5]: 4.79 µM

B20: LPP FP4 1 peptide (peptide)
peptide: MAGGLNDIFEAQKIEWHEDTGGSSHHHHHHGSGSGSDSEVNQEAKPEVKPEVKPETHINLKVSDGSSEIFFKIKKTTPLRRLMEAFAKRQGKEMDSLTFLYDGIEIQADQTPEDLDMEDNDIIEAHREQIGGSGSGKQPGGEGDFLPPPPPPLDDSSALPSISGN
modifications: biotinylated (BAP tag)
notes: Truncation of the LPP 36mer that keeps the first FP4 motif, tested as a SUMO fusion
- Kd [1]: 61.3 µM
- Kd [2]: 12.4 µM
